The results in this text go back to US20160068605A1.

Read-outs that look alike come from different tables or passages of the source.

The target of assay [1] is IL3RA-PK (CD123 tagged with ProLink) in HEK293 IL3RA-PK/CSF2RB-EA cells (UniProt P26951).
Assay [2] has the same target. The source holds these as a separate data set.
For assay [3], the target named is cell-surface CD3 epsilon on primary cynomolgus T cells (cynomolgus monkey) (UniProt Q95LI5). Briefly: saturation binding by flow cytometry on cynomolgus monkey T cells.
Assay [4] concerns the target cell-surface CD3 epsilon on primary human T cells (human) (UniProt P07766). Briefly: saturation binding by flow cytometry on primary human T cells (Donor 10006).

Chain of cell-surface CD3 epsilon on primary human T cells (human) (P07766 23-207): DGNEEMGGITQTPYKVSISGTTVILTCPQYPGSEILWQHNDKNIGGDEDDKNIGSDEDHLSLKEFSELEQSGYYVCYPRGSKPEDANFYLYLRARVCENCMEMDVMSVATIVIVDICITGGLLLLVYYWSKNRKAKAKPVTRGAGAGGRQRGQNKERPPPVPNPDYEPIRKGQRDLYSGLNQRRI
Chain of cell-surface CD3 epsilon on primary cynomolgus T cells (cynomolgus monkey) (Q95LI5 22-198): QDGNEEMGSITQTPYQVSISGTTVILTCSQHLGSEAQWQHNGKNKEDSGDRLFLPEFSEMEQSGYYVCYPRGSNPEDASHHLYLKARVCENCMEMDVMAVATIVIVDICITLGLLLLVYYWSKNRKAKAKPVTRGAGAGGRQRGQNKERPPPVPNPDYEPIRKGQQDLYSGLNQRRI

For IL-3 (from UniProt P08700) (ligand), the EC50 (read off the curve): CD123/CD131 heteromerization (RLU) in assay [1] worked out at 3 ng/mL; in assay [2], 6 ng/mL.
In assay [3], SP34-2 (antibody) displayed an Antigen binding sites/cell of 55000 sites/cell and a Kd of 1.4 nM. For the same substance, in assay [4], the Ab binding sites/cell was found to be 60000 sites/cell and the Kd amounted to 4.2 nM.
